Test [1] has as its target T1, mucin subtype 5AC (MUC5AC) (human (from transplanted human …, UniProt P98088 28-5654, limits assumed)).
T1 construct: Secretory mucin glycoprotein; target present in tumor tissue sections, not as purified protein
In words: in vitro autoradiography; mean of small ROIs in MUC5AC positive vs negative tumor sections.

The target of test [2] is T1, mucin subtype 5AC (MUC5AC). In words: in vitro autoradiography; whole-section ROI of MUC5AC positive vs negative tumor sections.

B1: ^225Ac-labeled anti-MUC5AC humanized antibody prepared using ^225Ac-labeled DOTAGA-DBCO (monovalent antibody; H01L03) (antibody, human IgG1, kappa, V domains shown)
VH: EVQLLESGGGLVQPGGSLRLSCAASGFTFSNYGMSWVRQAPGKGLEWVSTISNSGRYTYFPDSVKGRFTISRDNSKNTLYLQMNSLRAEDTALYYCTRHLDYANYDAMDYWGQGTLVTVSS
VL: DIQMTQSPSSLSASVGDRVTITCRASKSVTTSDFSYMHWYQQKPGKSPKLLIYLASNLESGVPSRFSGSGSGTDFSLTISSLQPEDFATYYCQHSREFPWTFGGGTKVEIKR
modifications: Fc region site-specifically modified (Lys252, Eu numbering) by one molecule per antibody of antibody-modification peptide (SEQ ID NO: 10 with Xaa2 = lysine, disulfide between its two cysteines, N-terminal diglycolic acid-PEG8-ethyl azide); azide click-reacted with ^225Ac-chelated DOTAGA-DBCO
notes: also called RI-labeled anti-MUC5AC humanized antibody prepared using ^225Ac-labeled DOTAGA-DBCO; ^225Ac-labeled antibody
As to B1, the “binding ratio to the MUC5AC positive tumor and the negative tumor” value (“binding ratio” below) in test [1] turned out to be 6.5 fold.

B2: ^89Zr-labeled anti-MUC5AC humanized antibody prepared using ^89Zr-labeled DOTAGA-DBCO (monovalent antibody; H01L03) (antibody, human IgG1, kappa, V domains shown)
VH: B1 VH
VL: B1 VL
modifications: Fc region site-specifically modified (Lys252, Eu numbering) by one molecule per antibody of antibody-modification peptide (SEQ ID NO: 10 with Xaa2 = lysine, disulfide between its two cysteines, N-terminal diglycolic acid-PEG8-ethyl azide); azide click-reacted with ^89Zr-chelated DOTAGA-DBCO
notes: also called RI-labeled anti-MUC5AC humanized antibody prepared using ^89Zr-labeled DOTAGA-DBCO; ^89Zr complex-labeled antibody
Turning to B2, the “binding ratio” value in test [2] is 138 fold.

B3: ^89Zr-labeled anti-MUC5AC humanized antibody prepared using ^89Zr-labeled DOTA-Bn-DBCO (monovalent antibody; H01L03) (antibody, human IgG1, kappa, V domains shown)
VH: B1 VH
VL: B1 VL
modifications: Fc region site-specifically modified (Lys252, Eu numbering) by one molecule per antibody of antibody-modification peptide (SEQ ID NO: 10 with Xaa2 = lysine, disulfide between its two cysteines, N-terminal diglycolic acid-PEG8-ethyl azide); azide click-reacted with ^89Zr-chelated DOTA-Bn-DBCO (formula L1-4)
notes: also called RI-labeled anti-MUC5AC humanized antibody prepared using ^89Zr-labeled DOTA-Bn-DBCO
On to B3, for which, in test [2], the “binding ratio” value was found to be 151 fold.

The values are drawn from US20210338852A1 (NIHON MEDI PHYSICS, published 2021).
